Paper PMC12775124, “CUL4A-DDB1-DCAF10 is an N-recognin for N-terminally acetylated Src kinases” (Nature Communications, 2026)
“Also recorded” adds a separate entry of the source.

System: DLD-1 Flp-In T-REx and Lyn KO cells
Assay: Level of Lyn / Lyn-GFP variants after NMT1/2 and DCAF10 siRNA, Western blot
Format: cell-based, human
Settings: DLD-1, 72 h siRNA
Text: To further investigate the role of the Nt-amino acid and its modification in DCAF10 recognition and DCAF10-dependent ubiquitination, we used the CRISPR/Cas9 technique to knock out Lyn in DLD-1 cell lines with T-REx Flp-In background (DLD-1 Lyn KO Flp-In T-REx) (Supplementary Fig. 7a–c). We then integrated Lyn^WT-GFP and two Nt-mutants (Lyn^G2A-GFP and Lyn^G2P-GFP) under a doxycycline-inducible promoter into the Flp-In cassette. Alanine (G2A) is expected to be efficiently acetylated by NatA, generating an Nt-acetylated Lyn mutant. Conversely, the proline (G2P) mutant, is expected not to be acetylated and may retain a free N-terminus[3],[36],[37]. Doxycycline-induced expression of Lyn^WT-GFP, Lyn^G2A-GFP, and Lyn^G2P-GFP was confirmed by Western blot, MS, and fluorescence microscopy (Supplementary Figs. 7d, e; 8a and Supplementary Data 6). […]
Fig. 6 N-terminal glycine mutation abolishes DCAF10-dependent stability and ubiquitination. a DLD-1 Flp-In T-REx cells and Lyn KO cells expressing Lyn^WT-GFP, Lyn^G2A-GFP, or Lyn^G2P-GFP were induced for 24 h with 100 ng/mL doxycycline. […] Filled circles represent siRNA treatment, empty circles untreated. b WB quantifications of Lyn levels normalized to vinculin. […] Lysates have been treated with NMT1/2 RNAi for 72 h. i Quantification of in vitro ubiquitination assays. […]

| Molecule | Dependency on NMT1/2 and DCAF10 (in words) |
| --- | --- |
| Lyn^G2A-GFP: Nt-mutant (G2A) Lyn-GFP (protein, UniProt P07948 2-512, looked up, variant G2A, GFP fusion) Tyrosine-protein kinase Lyn: ACIKSKGKDSLSDDGVDLKTQPVRNTERTIYVRDPTSNKQQRPVPESQLLPGQRFQTKDPEEQGDIVVALYPYDGIHPDDLSFKKGEKMKVLEEHGEWWKAKSLLTKKEGFIPSNYVAKLNTLETEEWFFKDITRKDAERQLLAPGNSAGAFLIRESETLKGSFSLSVRDFDPVHGDVIKHYKIRSLDNGGYYISPRITFPCISDMIKHYQKQADGLCRRLEKACISPKPQKPWDKDAWEIPRESIKLVKRLGAGQFGEVWMGYYNNSTKVAVKTLKPGTMSVQAFLEEANLMKTLQHDKLVRLYAVVTREEPIYIITEYMAKGSLLDFLKSDEGGKVLLPKLIDFSAQIAEGMAYIERKNYIHRDLRAANVLVSESLMCKIADFGLARVIEDNEYTAREGAKFPIKWTAPEAINFGCFTIKSDVWSFGILLYEIVTYGKIPYPGRTNADVMTALSQGYRMPRVENCPDELYDIMKMCWKEKAEERPTFDYLQSVLDDFYTATEGQYQQQP | did not show such dependency; also recorded: slight increase after DCAF10 depletion, independently of NMT1/2 |
| Lyn^G2P-GFP: Nt-mutant (G2P) Lyn-GFP (protein, UniProt P07948 2-512, looked up, variant G2P, C-terminal GFP fusion) Tyrosine-protein kinase Lyn: PCIKSKGKDSLSDDGVDLKTQPVRNTERTIYVRDPTSNKQQRPVPESQLLPGQRFQTKDPEEQGDIVVALYPYDGIHPDDLSFKKGEKMKVLEEHGEWWKAKSLLTKKEGFIPSNYVAKLNTLETEEWFFKDITRKDAERQLLAPGNSAGAFLIRESETLKGSFSLSVRDFDPVHGDVIKHYKIRSLDNGGYYISPRITFPCISDMIKHYQKQADGLCRRLEKACISPKPQKPWDKDAWEIPRESIKLVKRLGAGQFGEVWMGYYNNSTKVAVKTLKPGTMSVQAFLEEANLMKTLQHDKLVRLYAVVTREEPIYIITEYMAKGSLLDFLKSDEGGKVLLPKLIDFSAQIAEGMAYIERKNYIHRDLRAANVLVSESLMCKIADFGLARVIEDNEYTAREGAKFPIKWTAPEAINFGCFTIKSDVWSFGILLYEIVTYGKIPYPGRTNADVMTALSQGYRMPRVENCPDELYDIMKMCWKEKAEERPTFDYLQSVLDDFYTATEGQYQQQP | did not show such dependency |
